Here are results for one substance from patent publication US20060141545A1.

The target of assay [1] is murine VCAM-1 (vascular endothelial adhesion molecule-1) (murine) (UniProt P29533). The assay is described as follows: cell-based or functional assay.
The target is the same in assay [2]. The assay is described as follows: bEnd.3 cells, unstimulated against IL-1α-stimulated.
The target is the same in assay [3]. The assay can be described thus: IL-1α-activated bEnd.3 cells treated with anti-VCAM-1•tTF, bound coaguligand detected with 125I-labeled 10H10.

UniProt P29533, sequence (P29533 25-739): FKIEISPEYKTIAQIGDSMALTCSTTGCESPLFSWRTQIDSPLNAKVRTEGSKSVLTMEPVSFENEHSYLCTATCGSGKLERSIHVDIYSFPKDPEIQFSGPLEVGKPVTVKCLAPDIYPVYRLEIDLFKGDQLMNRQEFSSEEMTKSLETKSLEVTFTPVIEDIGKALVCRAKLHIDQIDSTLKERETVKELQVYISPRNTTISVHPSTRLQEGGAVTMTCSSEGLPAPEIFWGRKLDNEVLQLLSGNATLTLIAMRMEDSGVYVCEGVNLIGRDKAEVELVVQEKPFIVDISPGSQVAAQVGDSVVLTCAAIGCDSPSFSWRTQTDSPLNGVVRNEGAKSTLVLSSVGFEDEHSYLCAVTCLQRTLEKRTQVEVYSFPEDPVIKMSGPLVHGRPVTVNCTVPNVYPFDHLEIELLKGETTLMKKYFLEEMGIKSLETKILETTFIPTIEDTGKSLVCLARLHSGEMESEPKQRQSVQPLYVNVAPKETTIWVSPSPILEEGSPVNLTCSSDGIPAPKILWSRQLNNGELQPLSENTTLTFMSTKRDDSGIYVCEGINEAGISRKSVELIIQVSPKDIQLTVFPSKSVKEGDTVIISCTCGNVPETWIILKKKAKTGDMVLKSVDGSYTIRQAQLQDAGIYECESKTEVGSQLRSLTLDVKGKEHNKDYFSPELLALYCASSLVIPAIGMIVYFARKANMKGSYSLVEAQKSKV

In assay [1], “anti-VCAM-1•tTF coaguligand (MK2.7 anti-VCAM-1 IgG covalently linked through SMPT to truncated human tissue factor) (from UniProt P13726 33-251)” returned a Generation of factor Xa (chromogenic assay, S-2765), intact IL-1α-stimulated bEnd.3 cells (ng per 10^4 cells per 60 min) of 3.17; a Generation of factor Xa (chromogenic assay, S-2765), intact unstimulated bEnd.3 cells (ng per 10^4 cells per 60 min) of 1.64; a Generation of factor Xa (chromogenic assay, S-2765), saponin-permeabilized IL-1α-stimulated bEnd.3 cells (ng per 10^4 cells per 60 min) of 98.8; a Generation of factor Xa (chromogenic assay, S-2765), saponin-permeabilized unstimulated bEnd.3 cells (ng per 10^4 cells per 60 min) of 49.2. Also, in assay [1] (scale: ng of factor Xa per 10,000 cells per 60 min), the factor Xa produced by permeabilized IL-1α-stimulated bEnd.3 cells preincubated with coaguligand, no Annexin V was 95. Moreover, the amount bound to unstimulated cells against stimulated cells in assay [2] is 50 % lower. In assay [3], this substance gave an amount of anti-TF antibody bound at saturation of 8.7 fmol and a molecules of anti-TF antibody bound per cell at saturation (molecules per cell) of 540000.
